From publication PMC9054685 (RSC Advances, 2020)

Experiment: Particle size by dynamic light scattering
Format: physicochemical
Details: Zetasizer Nano ZS, 25 °C

dendritic polylysine-1,4,7-triazacyclononane-1,4,7-triacetic acid conjugate [NOTA-DGL]
diameter (particle size, DLS): 35.02 ± 1.53 nm
